Test results published in US12545899B2, “Luciferase enzymes for use with thermostable luciferins in bioluminescent assays” (Promega Corporation, priority 2018, dated 2026).
Changes are numbered by the printed parent chain. Numbers in names are those of the source.

B1: C2240E2: SEQ ID NO: 40; H244W+T344A+I396K+S193A+N228D+L305F+S306P+I109V+I230F+V335G+I410M (protein)
chain: MADKNILYGPEPFYPLEDGTAGEQMFDALSRYAAIPGCIALTNAHTKENVLYEEFLKLSCRLAESFKKYGLKQNDTIAVCSENSLQFFLPVIASLYLGIIVAPVNDKYVERELIHSLGIVKPRIVFCSKNTFQKVLNVKSKLKSIETIIILDLNEDLGGYQCLNNFISQNSDSNLDVKKFKPYSFNRDDQVAAIMFSSGTTGLPKGVMLTHKNIVARFSIAKDPTFGDAFNPTSAILTVIPFHWGFGMMTTLGYFTCGFRVVLMHTFEEKLFLQSLQDYKVESTLLVPTLMAFLAKSALVEKYDFPHLKEIASGGAPLSKEIGEMVKKRFKLNFGRQGYGLTEATSAVLITPKGDAKPGSTGKIVPLHAVKVVDPTTGKILGPNEPGELYFKGPMKMKGYYNNEEATKAMIDNDGWLRSGDIAYYDNDGHFYIVDRLKSLIKYKGYQVAPAEIEGILLQHPYIVDAGVTGIPDEAAGELPAAGVVVQTGKYLNEQIVQDYVASQVSTAKWLRGGVKFLDEIPKGSTGKIDRKVLRQMLEKHTNGHHHHHHHH
B2: C2261D9: SEQ ID NO: 41; H244W+T344A+I396K+S193A+N228D+L305F+S306P+I109V+C38R+Y108F+T376I (protein)
chain: B1 chain with C38R, Y108F, F230I, G335V, T376I, M410I
B3: MK0148: SEQ ID NO: 114; H244W+S193A+N228D+L305F+S306P+I109V+C38R+F55I+Y108F+A316W+Y339M+T342S+V348I+C257R+T289S+S313T+D435G+L437R+W510R (protein)
chain: MADKNILYGPEPFYPLEDGTAGEQMFDALSRYAAIPGRIALTNAHTKENVLYEEILKLSCRLAESFKKYGLKQNDTIAVCSENSLQFFLPVIASLYLGIIVAPVNDKFVERELIHSLGIVKPRIVFCSKNTFQKVLNVKSKLKSIETIIILDLNEDLGGYQCLNNFISQNSDSNLDVKKFKPYSFNRDDQVAAIMFSSGTTGLPKGVMLTHKNIVARFSIAKDPTFGDAINPTSAILTVIPFHWGFGMMTTLGYFTCGFRVVLMHTFEEKLFLQSLQDYKVESTLLVPTLMAFLAKSALVEKYDFPHLKEIATGGWPLSKEIGEMVKKRFKLNFVRQGMGLSETTSAILITPKGDAKPGSTGKIVPLHAVKVVDPTTGKILGPNEPGELYFKGPMIMKGYYNNEEATKAIIDNDGWLRSGDIAYYDNDGHFYIVGRRKSLIKYKGYQVAPAEIEGILLQHPYIVDAGVTGIPDEAAGELPAAGVVVQTGKYLNEQIVQDYVASQVSTAKWLRGGVKFLDEIPKGSTGKIDRKVLRQMLEKHTNGHHHHHHHH
B4: MK0144: SEQ ID NO: 110; H244W+S193A+N228D+L305F+S306P+I109V+C38R+F55I+Y108F+A316W+Y339M+T342S+V348I+K353R (protein)
chain: B3 chain with T313S, K353R, G435D, R437L
B5: MK0146: SEQ ID NO: 112; H244W+S193A+N228D+L305F+S306P+I109V+C38R+F55I+Y108F+A316W+Y339M+T342S+V348I+L437R (protein)
chain: B3 chain with T313S, G435D

What was measured:
[1] = Brightness of additional luciferase enzyme variants with CS0333; type: biochemical; settings: Table 7A, 1 mM CS0333; for Fold-improvement over ATG3707, CS0333 BG: Bright-Glo buffer; for Fold-improvement over ATG3707, CS0333 DR: Detection Reagent buffer
Outline: (§1)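 Each variant at 0.005 mg/ml combined with 1 mM ATP plus 1 mM substrate in Bright-Glo or Detection Reagent buffer; luminescence recorded as relative brightness.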

[2] = Luminescence of ATG-3707 variants (second round epPCR) with CS0333; type: biochemical; settings: for Luminescence (RLU) BrightGlo / Normalized Luminescence BrightGlo: BrightGlo buffer; for Luminescence (RLU) BrightGlo / Luminescence (RLU) CellTiterGlo / Luminescence (RLU) Detection Reagent: 25° C., 3 min; for Normalized Luminescence BrightGlo / Normalized Luminescence CellTiterGlo / Normalized Luminescence Detection Reagent: normalized to ATG-3707; for Luminescence (RLU) CellTiterGlo / Normalized Luminescence CellTiterGlo: CellTiterGlo buffer; for Luminescence (RLU) Detection Reagent / Normalized Luminescence Detection Reagent: Detection Reagent buffer
Procedure: Reagent compositions included CS0333 diluted from 20 mM to 2 mM in reaction buffer with 2 mM ATP. […] Reactions were incubated at 25° C. for 3 min, and luminescence was read and then normalized to ATG-3707 activity tested in parallel.

[3] = Differential scanning fluorimetry (DSF) analysis; type: physicochemical; design: key to DSF Tm: melting temperature in °C (heated 30-95 °C at 1 °C/min); settings: for DSF Tm: Table 7A; for DSF Tm (° C.): Table 12
Outline: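 Thermal melt with 5× final Sypro Orange: ramp 1° C/min from 30 to 95° C, reading each 60 s, derivative of fluorescence plotted by temperature. Luciferase variants were in 20 mM HEPES pH 7.5, 200 mM NaCl, 1 mM EDTA; other enzymes in 50 mM HEPES pH 7.5, 100 mM NaCl, 2 mM EDTA.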

[4] = Brightness of additional luciferase enzyme variants with CS0280; type: biochemical; settings: Table 7A, 1 mM CS0280; for Fold-improvement over ATG3707, CS0280 BG: Bright-Glo buffer; for Fold-improvement over ATG3707, CS0280 DR: Detection Reagent buffer
Outline: as §1

[5] = Kinetic analysis of ATG-3707 variants with CS0333; type: biochemical
Procedure: Additionally, Table 5 (below) includes kinetic analysis of the ATG-3707 variants identified above. Reagent compositions included CS0333 serially diluted 10-fold from 1 mM to 10 fM in reaction buffer with 2 mM ATP. […] Reactions were incubated at 25° C. for 3 min, and luminescence was read and then normalized to ATG-3707 activity tested in parallel. […] Since C2157D2 was selected for improved brightness in CellTiterGlo® buffer over ATG-3707, it still had beneficial properties.

[6] = Luminescence at 1 mM CS0280 (Table 11); type: biochemical; settings: 1 mM substrate, 1 mM ATP
From the text: (§2) Tables 10 and 11 include representative results of kinetic analysis of the thermostable variants with D/L luciferin, CS0333, and CS0280. […] MK0135 and MK0137 have amino acid substitutions that improve thermostability relative to MK0133 and MK0134, respectively, while retaining activity on the luciferin analogs CS0333 and CS0280.

[7] = Kinetic analysis of thermostable variants with CS0333 (Tables 13, 14); type: biochemical; settings: 2 mM ATP
From the text: (§3) Tables 13 and 14 include representative results of kinetic analysis of the thermostable variants with D/L luciferin, CS0333, and CS0280. The panel of enzyme variants highlight amino acid substitutions that further improve upon MK0137 in maximum luminescence (Vmax) or Km in different buffers with the different substrates tested (D/L-luciferin, CS0333, and CS0280). In particular, enzyme variants MK0151 and MK153 show improvements relative to MK0137 across multiple buffers with multiple substrates.

[8] = Kinetic analysis of thermostable variants with D/L-luciferin (Tables 13, 14); type: biochemical; settings: 2 mM ATP
From the text: as §3

[9] = Luminescence at 1 mM CS0333 (Table 11); type: biochemical; settings: 1 mM substrate, 1 mM ATP
From the text: as §2

[10] = Kinetic analysis of thermostable variants with CS0280 (Tables 13, 14); type: biochemical; settings: 2 mM ATP
From the text: as §3

[11] = Luminescence at 1 mM D/L-luciferin (Table 11); type: biochemical; settings: 1 mM substrate, 1 mM ATP
From the text: as §2

[12] = Kinetic analysis of thermostable variants with 400 fM-4 mM CS0280 (Table 12); type: biochemical; settings: 4 mM ATP
Procedure: Table 12 includes representative results of kinetic analysis of the thermostable variants with 400 fM-4 mM CS0280. This panel of enzyme variants have a combination of improved thermostability and brightness with CS0280 relative to their progenitor enzyme variants MK134 and MK137.

Molecule | Fold-improvement over ATG3707, CS0333 BG [1] | Fold-improvement over ATG3707, CS0333 DR [1] | Luminescence (RLU) BrightGlo [2] | Normalized Luminescence BrightGlo [2] | Luminescence (RLU) CellTiterGlo [2] | Normalized Luminescence CellTiterGlo [2] | Luminescence (RLU) Detection Reagent [2] | Normalized Luminescence Detection Reagent [2] | DSF Tm [3] | Fold-improvement over ATG3707, CS0280 BG [4] | Fold-improvement over ATG3707, CS0280 DR [4] | Km ([5]; BrightGlo) | Vmax (RLU) ([5]; BrightGlo) | Km ([5]; Detection Reagent) | Vmax (RLU) ([5]; Detection Reagent) | DSF Tm (° C.) [3] | Km ([12]; BrightGlo Buffer) | Vmax (RLU) ([12]; BrightGlo Buffer) | Km ([12]; Detection Reagent Buffer) | Vmax (RLU) ([12]; Detection Reagent Buffer) | also measured
B1 | 1.26 | 1.21 | 3202900 RLU | 0.82 | 976519 RLU | 1.51 | 6978270 RLU | 1.35 | 49 | 1.24 | 1.39 | 3.97 µM | 5,559,638 RLU | 88.7 µM | 5,831,602 RLU | – | – | – | – | – | –
B2 | 1.10 | 1.43 | 4380280 RLU | 1.13 | 628712 RLU | 0.98 | 6890380 RLU | 1.34 | 61 | 1.39 | 1.89 | 7.46 µM | 6,903,348 RLU | 117 µM | 6,756,516 RLU | – | – | – | – | – | –
B3 | – | – | – | – | – | – | – | – | – | – | – | – | – | – | – | – | – | – | – | – | Vmax (RLU) CS0280 BrightGlo Buffer ([6]; BrightGlo Buffer): 620,182 RLU; Vmax (RLU) CS0280 Detection Reagent Buffer ([6]; Detection Reagent Buffer): 21,505 RLU; Km ([7]; BrightGlo Buffer): 8.44 µM; Vmax (RLU) ([7]; BrightGlo Buffer): 2,895,248 RLU; Km ([7]; Detection Reagent Buffer): 48.4 µM; Vmax (RLU) ([7]; Detection Reagent Buffer): 543,865 RLU; Km ([8]; BrightGlo Buffer): 0.0737 µM; Vmax (RLU) ([8]; BrightGlo Buffer): 1,993,509 RLU; Km ([8]; Detection Reagent Buffer): 0.21 µM; Vmax (RLU) ([8]; Detection Reagent Buffer): 332,703 RLU; Vmax (RLU) CS0333 BrightGlo Buffer ([9]; BrightGlo Buffer): 3,525,730 RLU; Vmax (RLU) CS0333 Detection Reagent Buffer ([9]; Detection Reagent Buffer): 2,139,740 RLU; Km ([10]; BrightGlo Buffer): 8.94 µM; Vmax (RLU) ([10]; BrightGlo Buffer): 359,383 RLU; Km ([10]; Detection Reagent Buffer): 619 µM; Vmax (RLU) ([10]; Detection Reagent Buffer): 26,247 RLU; Vmax (RLU) D/L-luciferin BrightGlo Buffer ([11]; BrightGlo Buffer): 1,227,230 RLU; Vmax (RLU) D/L-luciferin Detection Reagent Buffer ([11]; Detection Reagent Buffer): 515,688 RLU
B4 | – | – | – | – | – | – | – | – | – | – | – | – | – | – | – | 73 °C | 10.5 µM | 1,586,262 RLU | 35.4 µM | 43,744 RLU | –
B5 | – | – | – | – | – | – | – | – | – | – | – | – | – | – | – | 72 °C | 4.21 µM | 1,114,607 RLU | 33.3 µM | 55,964 RLU | –
